Test results from the DeepSol protein solubility set.

assay: soluble on expression in E. coli; label from the status in PepcDB or PDB records

Row | Sequence | soluble on expression in E. coli
1 | MSLASTVVIKEGSGSGAVAACTVPQVLEQIAQSFPESIAAISERGRITFAELEFRSNQLARLLVKRGVKVGAIVVLMTGRSIDTLIGMTAILKAGGVYMPLDVGLGPEAISGAIQDAQPALVLTEHQPALIDAIEQRRLSDELDASRLEPGDPLALELTPSLPAYVMFTSGSTGRPKGVVVPHRAIVRLVVDTDFMTLSPATVMLHAAPLAFDASTLEIWGPLLNGGQIVIVEDAVLSVDRIAETLGRFSVNAAWLTAGLFHLMVDERPEALSGLTTLLAGGDVLSPAHVRRAMALLPDCTIVNGYGPTENTTFTCCYSIPRTGWGDGPVPIGFPISGTSVHILSDTLEPVADGEEGQLCAGGIGLALGYLNRPELTAEKFIVDPLSDDPAARLYLTGDYVRRRSDGAIEFRGRRDRQVKINGVRIELDGVEQALRQDPVLADAAVVLSADRGDAKRIVAFLKPLPGDAAGDLEAGVIRRLKEQFPAQAIPSTIKVVDELPLNKNGKIDRAKLLSDLIATEQLGAGTDEEDFSDDSVGSIVADIWSALLGKSVDARANLFDLGATSLQMIAAHERIQAAIGIRFPVTDLFAHPSIAEFQACLDGASHRSLAIAGAAREGHHHHHH | soluble
2 | MGSDKIHHHHHHMFEMGIQELVKTIDTNINHMISLSVLNLAQLGIKYGIFKAVASRPSYEELLSQIPVPNKPLLKKLIEHLKALGIIEETPSNLILNGFSYVLKFPKEDYMLLLSDWIPIWEEIYKMVDFALISYSHPYVLMDFDKDADFWDIRLSSSFNKTYRDAIINLGEIREDSYILDLGCGSVSPAYFGKFISEDGKYVGVDYSPGLLEIARERVERNGLPAELKEMDVSLIRTRSKYDVAIMSFLLEYVRDREEVLGKVLEALDSGGKLIIVEAFRDEFENIQAMEFFESLNRSFVGYPAKAEIKKAILREGFDVSFEDYGKSILVVRKL | not soluble
3 | MSYYHHHHHHDYDIPTTENLYFQGAMGSGIPMSLPGSTHSTAAELTGPSLVEVLRARPWFEEPPKAVELEGLAACEGEYSQKYSTMSPLGSGAFGFVWTAVDKEKNKEVVVKFIKKEKVLEDCWIEDPKLGKVTLEIAILSRVEHANIIKVLDIFENQGFFQLVMEKHGSGLDLFAFIDRHPRLDEPLASYIFRQLVSAVGYLRLKDIIHRDIKDENIVIAEDFTIKLIDFGSAAYLERGKLFYTFCGTIEYCAPEVLMGNPYRGPELEMWSLGVTLYTLVFEENPFCELEETVEAAIHPPYLVSKELMSLVSGLLQPVPERRTTLEKLVTDPWVTQPVNLADYTWEEVCRVNKPESGVLSAASLEMGN | soluble
4 | EGFRIAFISDLHYKSLLKEKGLNNLVDLLIAQKPDVLLMGGDYQEGCEYVEPLFAALARVKTPMGTFGVMGNNDYERCHDEIIRTMKHYGMRPLEHEVDTLRKDGQQIILAGVRNPFDLKQNGVSPTLALSPNDFVILLVHTPDYVEDVSVANTDIALAGHTHGGQVRVFGYAPIQNSHYGTRF | not soluble
5 | MGSDKIHHHHHHMKSELFYRKLEKCDLCPRNCGVNRLMGEKGACGVANSPVVSSWGPHFGEERILVGRGGSGTVFFTYCNLKCVYCQNYEISQLGIGKEITVEDLLRIFTELQDMGVENLNLVTPTHQIPFIVDAFERMEKEIPVVYNCGGYESVDTIISLEGFVDIYMPDFKYSDPELGEKLSGVKDYPRFALEALKVMIDQMGEPVIRNGVMKKGVLVRHLVLPGFLEDSFGVIDLLSTLEPKPLVNIMAQFYPAYRAKEYGLDRFITRDEYLKVVEYAKKKKLNLIEVERWLRWL | not soluble
6 | MGSDKIHHHHHHVLTNQTGYEYHKCTDLTAMIKDYIDNWQKNNAHFDGIYSGFMTGSKQIELFMDFLDVFYEKNTMLLVDPVMGDDGRTYGIYSAALLDGMKALSRKADVITPNLTEACLLADYDIEKVYSDTRKDVLLPIAAEISEKLRCLSGKNQDVIITGIKCRDDKSPFIYNLVTTANGTTTHRSHFFDVSFSGTGDLFASVICGSRLNGFSTEEAAERAGKFLYDSIADTMNDDTAPNDGVNFEKFLRELM | not soluble
7 | MLDRPHHTTADIIARCEALFSDLSFTAAREWKAAEPGRIVVGFLPYYAPRELVHAAGGLPLGIFGGGDQLEVIHGDAYYQSYICRIPRSTIELGVSGRLDFVDGMMFPSICDVIRNLSGMWKLMFPSKGARYIDLPHNFDDDLGGEFYVSELRETCEWLSTLTGKPITSDAIRASIAVFNDNRRLIRALYQLRADEPWNVPSSELYLLLRAGMVIPVEEHNQMLADYLAAVRLQQRPIKDNSRVVICGMFCEQPPLNLIKSIELSGCYIVDDDFILVTRWENSDVALDGDPLSNLASAYLHDSKSTPPKYEPDEAKKGLYLVDSVRKNRAEGVIFAMTSFCDPGLLERPMLQAVLKSHGIPQIAFKYAENSGQMQPIREQAGTFADSIKLWSGA | not soluble
8 | MNGDVQSVIRGYLERAQVAKTMSDAGRWNEAGDLLRQLMTDVKSCKISASNRDEHDARNTFLRALEANLKLVQQNVRDEDDLHEAMTRQSGSPEPPADPDVWSKPSPPLPSSSKFGATKKGVGAAGPRPREISKSTSSMSTNPADVKPANPTQGILPQNSAGDSFDASAYDAYIVQAVRGTMATNTENTMSLDDIIGMHDVKQVLHEAVTLPLLVPEFFQGLRSPWKAMVLAGPPGTGKTLIARAIASESSSTFFTVSSTDLSSKWRGDSEKIVRLLFELARFYAPSIIFIDEIDTLGGQRGNSGEHEASRRVKSEFLVQMDGSQNKFDSRRVFVLAATNIPWELDEALRRRFEKRIFIPLPDIDARKKLIEKSMEGTPKSDEINYDDLAARTEGFSGADVVSLCRTAAINVLRRYFRYDTKSLRGGELTAAMESLKAELVRNIDFEAALQAVSPSAGPDTMLKCKEWCDSFGAM | not soluble
9 | MGSDKIHHHHHHMNTKNYFIIGGTGGIGKAMVEQLLQTATNEHASTGMNNDTGIRVFATYHKSIPDFEADNLYWIAMDICDEQSIKHAVDTIKQQTTHIDWVINCAGLLHTKAQQPEKALQQLESEFFLQNMQVNALASLLIAKHIKPLLAKAERSADKPAIFATISARVGSISDNQLGGWYSYRMSKAALNMGMKNLSIEWSRSLKDVCVVVMQPGTVNTQLSAPFQGNVADGQLFSPTYSAECLLEVLSKMSAAQSGSFVDWAGESIPW | not soluble
10 | MSLKVLAAMSGGVDSSVAAARMVDAGHEVVGVHMALSTAPGTLRTGSRGCCSKEDAADARRVADVLGIPFYVWDFAEKFKEDVINDFVSSYARGETPNPCVRCNQQIKFAALSARAVALGFDTVATGHYARLSGGRLRRAVDRDKDQSYVLAVLTAQQLRHAAFPIGDTPKRQIRAEAARRGLAVANKPDSHDICFIPSGNTKAFLGERIGVRRGVVVDADGVVLASHDGVHGFTIGQRRGLGIAGPGPNGRPRYVTAIDADTATVHVGDVTDLDVQTLTGRAPVFTAGAAPSGPVDCVVQVRAHGETVSAVAELIGDALFVQLHAPLRGVARGQTLVLYRPDPAGDEVLGSATIAGASGLSTGGNEGHHHHHH | soluble
11 | HMSSLQRASVSFNKPGHIPFGAVQGYAPGGVPAYSNKHDHYFSGERNIEDNIFFGFKYQCVEFARRWLLVRKGLLLPDVNWACHIFQLKEVRDAATTESFAVLQVRNGTTTKPEADALLVYPSTDANPVGHVGTITEVGDDYVCVADQNYRFHKWESSCAYKLKLDHRDGIWTIIDDIDADEIEIPLGWLTFPGRANRPEGAPPVALHPSLHFKEPPKPYLLRRNFLPTESKANWLDMNNPAERLFVEEFGMDVSRTRLEEKVVSYYESNHEFHLRCVAYGTQLHAIFMEATAQVIESDEKLRLFAIPEEFWPRIRHSWKYQQTYISGRFDFAFNNETGEVKCFEYNADSASTLLECGLIQQKWAESVGLDKQDTRGSGFAVERNLKMAWANSGATGRVHFCVDEEREEQYTALYCMQAAEAVGLEGKLCILFDEFRFDDNGHVVDSDGVRVRNVWKTWMWESAITDYYAAREERGENWKPSPKDKVRLCDLLLGDDWEILYFEPMWKVIPSNKAILPMIYHNHPEHPAILKAEYELTDELRKHGYAKKPIVGRVGSNVIITSGDGVVHAESGGKYGKRNMIYQQLFELKKQDDYYAIIGGWMIGDAFSGTGIREDKSVITGVDSPFAAVRIKTDKLPHPVTLKDIDKMAEDE | soluble
12 | MQKIGEWLKEHDVKVTTIYFGGGTPTSITAEEMDLLYEEMVRSFPDVKNIREITVEAGRPDTITEEKLAVLNKYDIDRISINPQSYENETLKAIGRHHTVEETIEKYHLSRQHGMNNINMDLIIGLPGEGVKEFRHSLSETEKLMPESLTVHTLSFKRASEMTRNKHKYKVAGREEVSQMMEDAVAWTKEHGYVPYYLYRQKNILGNLENVGYSLPGQESIYNIMIMEEVQTIIGIGCGAASKFIDRDTGKITHFANPKDPKSYNERFEHYTDEKIKYLEQIFEKTTKQHLEHHHHHH | not soluble
13 | MANWQCVKQCGACCNLDPAERPEIEDYLTPDELEIYFSMVGEGGWCVNFDHTTRECRIYSTRPRFCRVEPDIFQDMYGIESEELNDFAIECCRQQIEGVYGDRSLEMLRFDKAVGILEHHHHHH | soluble
14 | MHFETVIGLEVHVELKTDSKMFSPSPAHFGAEPNSNTNVIDLAYPGVLPVVNKRAVDWAMRAAMALNMEIATESKFDRKNYFYPDNPKAYQISQFDQPIGENGYIDIEVDGETKRIGITRLHMEEDAGKSTHKGEYSLVDLNRQGTPLIEIVSEPDIRSPKEAYAYLEKLRSIIQYTGVSDVKMEEGSLRCDANISLRPYGQEKFGTKAELKNLNSFNYVRKGLEYEEKRQEEELLNGGEIGQETRRFDESTGKTILMRVKEGSDDYRYFPEPDIVPLYIDDAWKERVRQTIPELPDERKAKYVNELGLPAYDAHVLTLTKEMSDFFESTIEHGADVKLTSNWLMGGVNEYLNKNQVELLDTKLTPENLAGMIKLIEDGTMSSKIAKKVFPELAAKGGNAKQIMEDNGLVQISDEATLLKFVNEALDNNEQSVEDYKNGKGKAMGFLVGQIMKASKGQANPQLVNQLLKQELDKRMAGDPLEHHHHHH | not soluble
15 | MTEFDNLTWLHGKPQGSGLLKANPEDFVVVEDLGFTPDGEGEHILLRILKNGCNTRFVADALAKFLKIHAREVSFAGQKDKHAVTEQWLCARVPGKEMPDFSAFQLEGCKVLEYARHKRKLRLGALKGNAFTLVLREISDRRDVETRLQAIRDGGVPNYFGAQRFGIGGSNLQGALRWAQSNAPVRDRNKRSFWLSAARSALFNQIVHQRLKKPDFNQVVDGDALQLAGRGSWFVATSEELPELQRRVDEKELMITASLPGSGEWGTQRAALAFEQDAIAQETVLQSLLLREKVEASRRAMLLYPQQLSWNWWDDVTVELRFWLPAGSFATSVVRELINTMGDYAHIAE | not soluble
16 | EQTQNLYIEGDNLDAMKLLKKSYAGKVDVIYIDPPYNTGKDFIFNDTFALSQEESDEKQGRYNEEGQRLFQNTEANGKFHSDWCSMMYARLMLARTLLNDNGIIFISIDDHELANLIKIGNEVFNASNFIDVFNWAKTETPENLSKKSKQIIEYIVCYQKKKNDMKFQGLKKESVSSNGLLNQPNSVGILTFPANKVVTSIPDGVIKAGMYGTDAYDVELLEDTTVRGGLFTAPVKLKAKFKWSQANLDKEIQKGTTIKIPTLKLSPSYEKLEYDPEVPPNLINYKVGVETNEQAGNHQLQFFDKKVFNFPKPVSLIQYLCEFIDTKNKDCIVMDFFSGSGTTAEAVMRMNMKPRKNKVKYILVQLPEDVTETIKKAKTPSEKEIMQNAIDFLTENHKALNICELSKERIRRAGDTIEAECNQRKSKDLPDIGFRVFRIADSNMKDVYYSAK | not soluble
17 | MSAQVSLELHHRISQFLFHEASLLDDWKFRDWLAQLDEEIRYTMRTTVNAQTRDRRKGVQPPTTWIFNDTKDQLERRIARLETGMAWAEEPPSRTRHLISNCQISETDIPNVFAVRVNYLLYRAQKERDETFYVGTRFDKVRRLEDDNWRLLERDIVLDQAVITSHNLSVLF | soluble
